Results on 1 substance are retold here after US20240150489A1.

Experiment [1] concerns the target CD38 on Raji-CD47KO cells (human) (UniProt P28907). Put plainly: flow cytometry dot plot, Raji-CD47KO cells, saturating Darzalex-AF647 alone; other quadrants printed Q1 0, Q2 0, Q4 0.23. For orientation: In flow cytometry, cells or beads pass a laser one at a time.
Experiment [2] has the same target. Put plainly: flow cytometry dot plot, Raji-CD47KO cells, mix of saturating Darzalex-AF647 and BEAT 38/47-60-AF488; other quadrants printed Q1 0.070, Q3 0.21, Q4 0.035.

The substance Darzalex (antibody) yielded a percent of cells in quadrant Q3 (AF647 positive, AF488 negative) in experiment [1] of 99.8%. In experiment [2], this substance showed a percent of cells in quadrant Q2 (AF488 and AF647 double positive) of 99.7%.
